Measured values published in the nanobody polyreactivity screen of Harvey et al. (2022).

Test: yeast display, Sf9 membrane polyspecificity reagent, FACS + sequencing; frameworks hold sequencing errors
Summary of the method: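 Galactose induction of a Saccharomyces cerevisiae BJ5465 synthetic nanobody display library ran 36–48 hours. The cells were then stained for 1 hour at 4 °C with 10% biotinylated, detergent-solubilized Sf9 membrane reagent, pulled down on streptavidin microbeads and FACS-sorted into low and high (top ~1%) gates on expression and reagent-binding fluorescence. Labels for polyreactivity follow the gate of origin.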

Sequence: QVQLVESGGGLVQAGGSLRLSCAASGSTFDTYAMGWYRQAPGKERELVAAISRSGTSTYYADSVKGRFTISRDNAKNTVYLQMNSLKPEDTAVYFCNNPWYSYRYGGVGYGYWGQGTQVTVSS
- polyreactivity (PSR sort gate): low polyreactivity

Sequence: QVQLVESGGGLVQAGGSLRLSCAASGSTFDYNAMGWYRQAPGKERELVAAISSGGRTYYADSVKGRFTISRDNAKNTVYLQMNSLKPEDTAVYYCAKARTLRYDSWGQGTQVTVSS
- polyreactivity (PSR sort gate): low polyreactivity

Sequence: QVQLVESGGGLVQAGGSLRLSCAASGSTFDYYAMGWNRQAPGKERDLVAASTSGSSTYYADSVKGRITISRDNAQNTVYLEMNSLKPEDTAVYYCAARSVYGSSFLSYGYWGQGTQLTVSS
- polyreactivity (PSR sort gate): high polyreactivity

Sequence: QVQLVESGGGLVQAGGSLRLSCAASGSTFDYYAMGWYRQAPGKERDLVAGITSDGSTDYADSVKGRFTISRDNAKNTVYLQMNSLKPEDTAVYYCAVDGDPVFYTTYYYSYYYWGQGTQVTVSS
- polyreactivity (PSR sort gate): low polyreactivity

Sequence: QVQLVESGGGLVQAGGSLRLSCAASGSTFDYYAMGWYRQAPGKERELVAAIRWSSGRTYYADSVKGRFTISRDNAKNTVYLQMNSLKPEDTAVYYCAARARGRYKRVALDYWGQGTQVTVSS
- polyreactivity (PSR sort gate): high polyreactivity

Sequence: QVQLVESGGGLVQAGGSLRLSCAASGSTFDYYAMGWYRQAPGKERELVAAISSTDGSTFYADSVKGRFTISRDNAKNTVYLQMNSLKPEDTAVYYCAVVGYYYPWPNGYDYWGQGTQVTVSS
- polyreactivity (PSR sort gate): low polyreactivity

Sequence: QVQLVESGGGLVQAGGSLRLSCAASGSTFDYYTMGGYRQAPGKERELVAAISSSGGSTYYADSVKGRFTISRDNAKNNVYLQMISLKPEDTAVYYCAADASPYGDVYDYWGQGTQVTVSS
- polyreactivity (PSR sort gate): low polyreactivity

Sequence: QVQLVESGGGLVQAGGSLRLSCAASGSTFDYYTMGWYRQAPGKERELVAAISSSGGSTYYADSVKGRFTISRDNAKNTVYLQMNSLKPEDTAVYYCAADPSPYGDEYDYWGQGTQVTVSS
- polyreactivity (PSR sort gate): low polyreactivity

Sequence: QVQLVESGGGLVQAGGSLRLSCAASGSTFDYYTMGWYRQAPGKERELVAAITSGGSTNYADSVKGRFTISRDNAKNTVYLQMNSLKPEDTAVYYCAADEWYNNYNCTTYGPEYDSWGQGTQVTVSS
- polyreactivity (PSR sort gate): low polyreactivity

Sequence: QVQLVESGGGLVQAGGSLRLSCAASGSTFEANAKGWYRQAPGKERELVAVITWTGGSTYYADSVKGRFTISRDYAKNTVYLQMNSLKPEDTAVYYCAAKFHRFAWYSHYDYWGQGTQVTVSS
- polyreactivity (PSR sort gate): low polyreactivity

Sequence: QVQLVESGGGLVQAGGSLRLSCAASGSTFEAYAMGWYRQAPGKERELVAAIRSSGSTSYADSVKGRFTISRDNAKNTVYLQMNSLKPVDTAVYYCAARVRGYPRYKRDYWGQGTQVTVSS
- polyreactivity (PSR sort gate): high polyreactivity

Sequence: QVQLVESGGGLVQAGGSLRLSCAASGSTFEAYAMGWYRQAPGKERELVAAITWSSGSTYYADSVKGRFTISRDNAKNTVYLQMNSLKPEDTAVYYCNKDWLAYDSLRVPSTIAFDYWGQGTQVTVSS
- polyreactivity (PSR sort gate): low polyreactivity

Sequence: QVQLVESGGGLVQAGGSLRLSCAASGSTFEDNAMGWYRQAPGKERELVAAITSGGNTYYADSVKGRFTISRDNAMNTVYLQMNSLKPDDTAVYYCNAVPFYYDFDYWGQGTQVTVSS
- polyreactivity (PSR sort gate): low polyreactivity

Sequence: QVQLVESGGGLVQAGGSLRLSCAASGSTFEFNDMGRYRPAPGKERELVASIRHSDGSRYYADSVKGRFTISRDNAKNTVYLQMIILKPEDTAVYDCNKAFQWSGGQVSYDYWGQGTQVTVSS
- polyreactivity (PSR sort gate): low polyreactivity

Sequence: QVQLVESGGGLVQAGGSLRLSCAASGSTFEGNAMGWYRQAPGKERELVAAITSGGSTNYADSVKGRFTISRDNAKNNVYLQMNSLKPEDTAVYYCAADTVSFSILYDYWGQGTQVTVSS
- polyreactivity (PSR sort gate): low polyreactivity

Sequence: QVQLVESGGGLVQAGGSLRLSCAASGSTFELYAMGWYRQAPGKERDFVAAITYDSTYYADSVKGRFTISRDNAKNTVYLQMNSLKPEDTAVYYCAAAYWHYYYGWDMYYWGQGTQVTVST
- polyreactivity (PSR sort gate): high polyreactivity

Sequence: QVQLVESGGGLVQAGGSLRLSCAASGSTFENYAMGWSRQAPGKERELVAAISWSGGSTYYADSVKGRFTISRDNAKNTVYLQMNSLKPEDTAVYYCNAELYLRWGVTVTFDYWGQGTQVTVSS
- polyreactivity (PSR sort gate): low polyreactivity

Sequence: QVQLVESGGGLVQAGGSLRLSCAASGSTFEPYARGWYRQAPGKERELVAAISSSGSTNYADSVKGRFTISRDNAKNTVYLQMNSLKPEDTAVYYCNARRQRSPIEVCERGYWGQGTQVTVSS
- polyreactivity (PSR sort gate): high polyreactivity

Sequence: QVQLVESGGGLVQAGGSLRLSCAASGSTFERYAMGWYRQAPGKKWSWLPYADSVKGRFTISRDNAKNTVYLQMNSLKPEDTAVYYCNAERDSPPLNLDRGWEYDYWGQGTQVTVSS
- polyreactivity (PSR sort gate): low polyreactivity

Sequence: QVQLVESGGGLVQAGGSLRLSCAASGSTFESNAMGWYRQAPGKERELVAAISYIDTSTYYADSVKGRFTISRDNAKNTVYLQMNSLKPEDTAVYYCATDVDWAYGYQYEYWGQGTQVTVSS
- polyreactivity (PSR sort gate): low polyreactivity

Sequence: QVQLVESGGGLVQAGGSLRLSCAASGSTFETYAMGWYRQAPGKEMELVAAISKTGARTYYADSVKGRFTISRDNAKNTVYLQMNSLKPEDTAVYYCAAERKAHRKPHSRVDKYYYWGQGTQVTVSS
- polyreactivity (PSR sort gate): high polyreactivity

Sequence: QVQLVESGGGLVQAGGSLRLSCAASGSTFEVYTMGWYRQAPGKARELVADITWSGGNTYYADSVKGRYTISRDNAKNTVYLQMNSLKPEDTAVYYCAVDGGEFSSYGYWGQGTQVTVSS
- polyreactivity (PSR sort gate): low polyreactivity

Sequence: QVQLVESGGGLVQAGGSLRLSCAASGSTFEYNAMGWYIQAPGKERELVASSTNYADSVKGRFTISRDNANNTVYLQMNSLKPEDTAVYYCAREQCVNRNHDYWGQGTQVTVSS
- polyreactivity (PSR sort gate): low polyreactivity

Sequence: QVQLVESGGGLVQAGGSLRLSCAASGSTFEYNAMGWYRQAPGKERELVASSTNYADSVKGRFTISRDNAKNTVYLQMNSLKPEDTAVYYCARVQGVNRNHDYWGQGTQVTVSS
- polyreactivity (PSR sort gate): low polyreactivity

Sequence: QVQLVESGGGLVQAGGSLRLSCAASGSTFEYYAMGWYRQAPGKERELVATITLIAGSTYADSVKGRFTISRDNAKNTVYLQMNSLKPEDTAVYYCAADDGGYESPEFVYGGRGDYWGQGTQVTVSS
- polyreactivity (PSR sort gate): low polyreactivity

Sequence: QVQLVESGGGLVQAGGSLRLSCAASGSTFEYYGMGWYRQAPGKERELVATITSGGSTNYADSVKGRFTISRDNAKNTVYLQMNSLKPEDTAVYYCAVDISNSLGGGFGYDYWGQGTQVTVSS
- polyreactivity (PSR sort gate): low polyreactivity

Sequence: QVQLVESGGGLVQAGGSLRLSCAASGSTFFDYAMGWYRQAPGKEREFVAAISRSGDTNYADSVKGRFTISRDNAKNTVYLQMNSLKPEDTAVYYCAKDWAYRRHWVGFYYWGQGTQVTVSS
- polyreactivity (PSR sort gate): low polyreactivity

Sequence: QVQLVESGGGLVQAGGSLRLSCAASGSTFFFNAMGWYRQAPGKERELVAAITGRSGSTYYADSVKGRFTISRDNAKNTVYLQMNSLKPEDTAVYYCAADFSPWRSDFDYWGQGTQVTVTS
- polyreactivity (PSR sort gate): low polyreactivity

Sequence: QVQLVESGGGLVQAGGSLRLSCAASGSTFFGNAMGWYRQAPGKERELVAAITSGGSTNYADSVKGRFTISRDNAKNTVYLQMNSLKPEDTAVYYCAKEYHYYYWGQGTQVTVSS
- polyreactivity (PSR sort gate): low polyreactivity

Sequence: QVQLVESGGGLVQAGGSLRLSCAASGSTFFGYDMGWSRQAPGKERELVATINSGGSTYYADSVKGRFTISRDNAKNTVYLQMNSLKPADTAVYYCAARPSYLYPYDRTGEYDYWGQGTQVTVSS
- polyreactivity (PSR sort gate): high polyreactivity

Sequence: QVQLVESGGGLVQAGGSLRLSCAASGSTFFGYTMGWYRQAPGKERELVAAITASDGSTYYADSVKGRFTISRDNAKNTVYLQMNSLKPEDTAVYYCNADYRLVRSFRLSSYTYIYDYWGQGTQVTVSS
- polyreactivity (PSR sort gate): low polyreactivity

Sequence: QVQLVESGGGLVQAGGSLRLSCAASGSTFFHNAMGWYRQAPGKEREWVAAINWNGGSTYYADSVKGRFTISRDNAKNTVYLQMNSLKPEDTAVYYCAADIYTYLGAYYIGYYWGQGTQVTVSS
- polyreactivity (PSR sort gate): low polyreactivity
